According to the supplement of paper PMC10724198:
± gives the standard deviation of the averaged measurements.

Tests used:
[1] = system: Saccharomyces cerevisiae; experiment: protein stability index of tFT-peptide fusion (C-terminal peptide) (PSI (0-1 scale)); higher = more stable (slower turnover)
Protocol: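 MPS profiling in S. cerevisiae of the tFT-X12 degron library: putative degron peptides plus stable controls, 12 aa, fused to the C-terminus of a sfGFP-mCherry timer. Cells are FACS-sorted into 8 mCherry/sfGFP bins and deep-sequenced. PSI runs from 0 (unstable) to 1 (stable). Backgrounds are wild type, das1Δ and doa10Δ at 30 °C, and wild type, das1Δ, cdc34-1 and cdc53-1 at 37 °C; 2-3 technical replicates each.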

[2] = system: Saccharomyces cerevisiae; experiment: as above; conditions: genetic background: wild type; temperature: 30 C
[3] = genetic background: cdc34-1, temperature: 37 C
[4] = genetic background: cdc53-1, temperature: 37 C
[5] = genetic background: das1 deletion, temperature: 30 C
[6] = genetic background: das1 deletion, temperature: 37 C
[7] = genetic background: doa10 deletion, temperature: 30 C
[8] = genetic background: wild type, temperature: 30 C
[9] = genetic background: wild type, temperature: 37 C
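Further: PSI is a weighted mean of sequencing reads over stability bins, variants kept only with over 10 reads, mCherry proximal and sfGFP distal, peptide attached via GGGS linker.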

Sequence	protein stability index [1, 3]	protein stability index [1, 4]	protein stability index [1, 5]	protein stability index [1, 6]	protein stability index [1, 7]	protein stability index [1, 8]	protein stability index [1, 9]	protein stability index [2]
VLRLLARRHAMV	0.577 ± 0.036	0.6735 ± 0.002	0.614 ± 0.015	0.689 ± 0.013	0.148 ± 0.013	0.145 ± 0.028	0.251 ± 0.02	0.308 ± 0.017
VMLFYVGSGVVS	0.654 ± 0.053	0.688 ± 0.038	0.54 ± 0.032	0.685 ± 0.016	0.545 ± 0.023	0.556 ± 0.02	0.671 ± 0.014	0.485 ± 0.11
VPGCLGRFLFFL	0.594 ± 0.025	0.6987 ± 0.0066	0.573 ± 0.024	0.722 ± 0.029	0.201 ± 0.032	0.218 ± 0.029	0.413 ± 0.029	0.29 ± 0.024
VRFGYGRIVWDI	0.706 ± 0.035	0.789 ± 0.048	0.6514 ± 0.0055	0.808 ± 0.018	0.472 ± 0.015	0.496 ± 0.032	0.68 ± 0.016	0.5 ± 0.1
VRGLGFRWVWGW	0.747 ± 0.034	0.762 ± 0.011	0.664 ± 0.0089	0.7668 ± 0.0056	0.666 ± 0.011	0.668 ± 0.013	0.772 ± 0.018	0.711 ± 0.038
VRHPVVVVRRVI	0.663 ± 0.017	0.746 ± 0.0067	0.649 ± 0.035	0.70566 ± 0.00012	0.3516 ± 0.0032	0.411 ± 0.025	0.576 ± 0.0099	0.508 ± 0.055
VRRFNVLLYVRG	0.459 ± 0.029	0.4921 ± 0.0032	0.311 ± 0.027	0.528 ± 0.0053	0.324 ± 0.0045	0.321 ± 0.019	0.523 ± 0.012	0.425 ± 0.0063
VRTFAVSCLCVC	0.0897 ± 0.018	0.139 ± 0.034	0.19 ± 0.019	0.23 ± 0.0066	0.126 ± 0.0024	0.133 ± 0.013	0.128 ± 0.0014	0.301 ± 0.0037
VSFFCLICRVYP	0.371 ± 0.0078	0.4463 ± 0.0044	0.317 ± 0.033	0.4808 ± 0.0037	0.298 ± 0.008	0.313 ± 0.012	0.417 ± 0.039	0.434 ± 0.099
VSIRVVVWVSWG	0.133 ± 0.0081	0.2248 ± 0.00098	0.145 ± 0.022	0.259 ± 0.011	0.121 ± 0.0089	0.143 ± 0.02	0.223 ± 0.013	0.226 ± 0.032
VSLHVFVFLLAS	0.255 ± 0.02	0.347 ± 0.0036	0.249 ± 0.025	0.4219 ± 0.0024	0.189 ± 0.012	0.239 ± 0.027	0.378 ± 0.0044	0.309 ± 0.043
VSLIYKTIKNRV	0.6704 ± 0.0033	0.732 ± 0.0082	0.595 ± 0.03	0.726 ± 0.063	0.396 ± 0.049	0.397 ± 0.015	0.6009 ± 0.001	0.517 ± 0.057
VSLSEVAIIVHG	0.544 ± 0.025	0.611 ± 0.0098	0.418 ± 0.035	0.596 ± 0.014	0.391 ± 0.022	0.426 ± 0.022	0.5739 ± 0.0012	0.517 ± 0.026
VSWWRGVYVVLF	0.503 ± 0.019	0.5319 ± 0.00099	0.388 ± 0.031	0.566 ± 0.0089	0.342 ± 0.013	0.357 ± 0.018	0.526 ± 0.023	0.518 ± 0.039
VTEGMKEVIKQI	0.647 ± 0.014	0.702 ± 0.026	0.629 ± 0.044	0.728 ± 0.013	0.3751 ± 0.00062	0.402 ± 0.038	0.6073 ± 0.0042	0.482 ± 0.0079
VVDIFLFFLFVC	0.171 ± 0.0036	0.192 ± 0.027	0.243 ± 0.013	0.351 ± 0.021	0.186 ± 0.0069	0.145 ± 0.0086	0.216 ± 0.048	0.203 ± 0.015
VVFVFIDLGLCV	0.187 ± 0.0053	0.326 ± 0.035	0.243 ± 0.028	0.423 ± 0.0072	0.188 ± 0.019	0.223 ± 0.018	0.4359 ± 0.0027	0.266 ± 0.007
VVFVRLGWMRAC	0.441 ± 0.034	0.52 ± 0.017	0.43 ± 0.03	0.59 ± 0.018	0.0904 ± 0.01	0.0972 ± 0.021	0.112 ± 0.0058	0.172 ± 0.046
VVGILVLASWDL	0.184 ± 0.011	0.321 ± 0.058	0.264 ± 0.041	0.426 ± 0.019	0.196 ± 0.0056	0.225 ± 0.029	0.373 ± 0.017	0.376 ± 0.045
VVLWTFLLEVSA	0.0259 ± 0.011	0.0344 ± 0.0033	0.0674 ± 0.015	0.0951 ± 0.0053	0.0508 ± 0.019	0.0755 ± 0.033	0.101 ± 0.014	0.134 ± 0.034

Sequence	protein stability index [1, 3]	protein stability index [1, 4]	protein stability index [1, 5]	protein stability index [1, 6]	protein stability index [1, 7]	protein stability index [1, 8]	protein stability index [1, 9]	protein stability index [2]
VVLWVVCWGCWK	0.237 ± 0.05	0.339 ± 0.021	0.215 ± 0.038	0.432 ± 0.024	0.179 ± 0.015	0.205 ± 0.029	0.421 ± 0.021	0.328 ± 0.027
VVSLAVVGRFLV	0.616 ± 0.061	0.7 ± 0.011	0.586 ± 0.024	0.7 ± 0.031	0.118 ± 0.018	0.147 ± 0.018	0.263 ± 0.03	0.2243 ± 0.0017
VVVFRWTCWLLV	0.0544 ± 0.005	0.144 ± 0.023	0.0835 ± 0.013	0.245 ± 0.0041	0.0257 ± 0.014	0.0385 ± 0.011	0.06333 ± 0.00029	0.0581 ± 0.028
VWSCILPMVYVW	0.111 ± 0.066	0.109 ± 0.0066	0.156 ± 0.022	0.1639 ± 0.00068	0.135 ± 0.016	0.158 ± 0.0067	0.157 ± 0.011	0.203 ± 0.0046
VWWWGAVGWLMV	0.572 ± 0.036	0.602 ± 0.028	0.528 ± 0.026	0.628 ± 0.016	0.392 ± 0.017	0.416 ± 0.018	0.547 ± 0.01	0.454 ± 0.0008
WCVRRVRFVMGC	0.414 ± 0.019	0.458 ± 0.05	0.316 ± 0.024	0.479 ± 0.0081	0.2183 ± 0.0013	0.234 ± 0.027	0.378 ± 0.013	0.31 ± 0.0046
WFLVFLRVGDGP	0.539 ± 0.01	0.566 ± 0.0072	0.362 ± 0.027	0.6 ± 0.0068	0.353 ± 0.039	0.378 ± 0.023	0.545 ± 0.016	0.474 ± 0.01
WKNIHGVFVFVM	0.5472 ± 0.001	0.48 ± 0.014	0.389 ± 0.028	0.5696 ± 0.0012	0.25 ± 0.0047	0.284 ± 0.03	0.445 ± 0.0072	0.403 ± 0.012
WLCLGLVVGLFL	0.44 ± 0.0069	0.488 ± 0.013	0.383 ± 0.029	0.459 ± 0.0058	0.339 ± 0.031	0.362 ± 0.017	0.47 ± 0.015	0.433 ± 0.041
WLCWVVWFPGLF	0.395 ± 0.035	0.509 ± 0.028	0.369 ± 0.032	0.541 ± 0.012	0.1615 ± 0.00068	0.171 ± 0.012	0.297 ± 0.015	0.244 ± 0.035
WLFFVVLPVKAF	0.0666 ± 0.0023	0.146 ± 0.02	0.178 ± 0.038	0.28 ± 0.016	0.104 ± 0.023	0.131 ± 0.026	0.154 ± 0.001	0.231 ± 0.0071
WLLSFLRFLVLR	0.124 ± 0.015	0.0923 ± 0.027	0.322 ± 0.045	0.308 ± 0.02	0.8 ± 0.014	0.298 ± 0.026	0.32 ± 0.021	0.393 ± 0.029
WLVCAGWVVLSC	0.153 ± 0.0026	0.2052 ± 0.00049	0.187 ± 0.023	0.2772 ± 0.0018	0.175 ± 0.0096	0.175 ± 0.026	0.222 ± 0.016	0.265 ± 0.033
WLYPVFKISYCV	0.492 ± 0.0089	0.533 ± 0.024	0.357 ± 0.032	0.5131 ± 0.0049	0.282 ± 0.0049	0.33 ± 0.021	0.464 ± 0.017	0.381 ± 0.014
WNIVKHREDMLS	0.685 ± 0.013	0.768 ± 0.015	0.638 ± 0.021	0.7359 ± 0.0046	0.63 ± 0.033	0.621 ± 0.027	0.7213 ± 0.0053	0.524 ± 0.14
WSLPPLLSPLYF	0.717 ± 0.035	0.753 ± 0.019	0.67 ± 0.016	0.758 ± 0.02	0.676 ± 0.024	0.672 ± 0.012	0.7198 ± 0.0018	0.667 ± 0.34
WVCCFVWGCLIR	0.2 ± 0.044	0.187 ± 0.0078	0.239 ± 0.021	0.353 ± 0.027	0.295 ± 0.0035	0.233 ± 0.019	0.303 ± 0.0074	0.281 ± 0.0081
WVLSRAAFVFFF	0.587 ± 0.04	0.612 ± 0.0096	0.473 ± 0.019	0.606 ± 0.011	0.322 ± 0.0078	0.337 ± 0.022	0.5201 ± 0.0035	0.44 ± 0.018
WVVLVCGFVLLG	0.246 ± 0.0069	0.369 ± 0.0077	0.243 ± 0.042	0.442 ± 0.0073	0.22 ± 0.0029	0.234 ± 0.019	0.361 ± 0.012	0.3175 ± 0.0027
